Substitutions are numbered along the chain they refer to.
B1: α4Gal-T1^37V: full coding human α4Gal-T1 variant, construct #45 (G109, T548, G903, A987), Val at residue 37 (protein, UniProt Q9NPC4 1-353, looked up)
chain: MSKPPDLLLRLLRGAPRQRVCTLFIIGFKFTFFVSIMIYWHVVGEPKEKGQLYNLPAEIPCPTLTPPTPPSHGPTPGNIFFLETSDRTNPNFLFMCSVESAARTHPESHVLVLMKGLPGGNASLPRHLGISLLSCFPNVQMLPLDLRELFRDTPLADWYAAVQGRWEPYLLPVLSDASRIALMWKFGGIYLDTDFIVLKNLRNLTNVLGTQSRYVLNGAFLAFERRHEFMALCMRDFVDHYNGWIWGHQGPQLLTRVFKKWCSIRSLAESRACRGVTTLPPEAFYPIPWQDWKKYFEDINPEELPRLLSATYAVHVWNKKSQGTRFEATSRALLAQLHARYCPTTHEAMKMYL
modifications: full-length
B2: α4Gal-T1^183K: full coding α4Gal-T1 from p individuals, construct p#5 (A109, A548, G903, G987), Met183 to Lys (protein, UniProt Q9NPC4 1-353, looked up, variant M183K)
chain: B1 chain with M183K
modifications: full-length
notes: full coding α4Gal-T1 from p individuals, construct p#5 (A109, A548, G903, G987), Met183 to Lys

How the values were obtained:
[1] = target: T1, α4Gal-T1 (Homo sapiens, UniProt Q9NPC4); experiment: Saccharide acceptor substrates tested with α4Gal-T1; format: biochemical; settings: saccharide acceptors, α4Gal-T1 expressed in insect cells
T1 construct: The full coding constructs were assayed with 1% Triton X-100 homogenates of cells; made in house; host or cells: insect cells (High Five), baculovirus vector pVL1393
T1 sequence (Q9NPC4 1-353): B1 chain
Description: (§1) Full coding constructs were prepared by genomic PCR using primer pair HCRS131 (5′-[…]) (SEQ ID NO:7) and HCRS125 (5′-[…]) (SEQ ID NO:8) and genomic DNA from phenotyped individuals with phenotypes P1+ (#165) and p (#4) (see Table II for sequence). Three different full coding constructs were selected for expression: #67 (A109, T548, G903, G987), #45 (G109, T548, G903, A987), and p#5 (A109, A548, G903, G987). The products were cloned into BamHI and EcoRI sites of pBluescript KS+, and subsequently into the insect cell expression vector pVL1393 (Pharmingen), and sequenced in full. A truncated, secreted construct (amino acid residues 46-353) was prepared using primer pair HCRS124 (5′-[…]) (SEQ ID NO:9) and HCRS125 from a P1+ phenotype individual (#165), and the sequence confirmed as described above. The products were cloned into the expression vector pAcGP67A (Pharmingen). The variants of plasmids pVL-α4Gal-T1-full and pAcGP67-α4Gal-T1-sol were co-transfected with Baculo-Gold™ DNA (Pharmingen), and virus amplified as described previously (Bennett et al., 1996). Standard assays were performed in 50 μl reaction mixtures containing 25 mM Cacodylate (pH 6.5), 10 mM MnCl2, 0.25% Triton X-100, 100 μM UDP-[^14C]Gal (10,000 cpm/nmol) (Amersham), and the indicated concentrations of acceptor substrates (Sigma and Dextra Laboratories Ltd) (see Table I for structures). The full coding constructs were assayed with 1% Triton X-100 homogenates of cells twice washed in phosphate buffered saline or resuspended microsomal fractions.

[2] = P^k assay: galactosyltransferase activity with CDH, α4Gal-T1 constructs expressed in insect cells; format: biochemical; settings: full coding constructs in insect (High Five) cells, microsomal fractions, 25 μg CDH, UDP-[14C]Gal, 4 hr, compared to uninfected cells or control construct
Description: (§2) FIG. 4 illustrates expression of full coding Expression of full coding α4Gal-T1 variants in High Five cells. Assays were performed with microsomal fractions, and controls included constructs encoding polypeptide GalNAc-T3 and -T4 (Bennett et al., 1998), as well as a β3GlcNAc-T (Amado et al., 1999). Autoradiography of high performance thin-layer chromatography of reaction products (4 hr) purified by SepPack C-18 columns. Panel A: P^k assay using 25 μg CDH as substrate. Plate was run in chloroform-methanol-water (60/35/8 v/v/v). […] Panel B: P1 assay using 20 μg PG as substrate. Plate was run in chloroform-methanol-water (60/40/10 v/v/v). No specific product was formed with UDP-Gal donor substrate, whereas the β3GlcNAc-T transferred GlcNAc into PG with UDP-GlcNAc.
as §1

[3] = tested on: Namalwa cells; experiment: Cell surface P^k/CD77 antigen expression after transient transfection, FACS analysis; format: cell-based, human; settings: transient transfection of Namalwa cells, 48 hours, 1A4 monoclonal antibody
Description: FIG. 7 illustrates cell surface expression of P^k/CD77 antigen in Namalwa cells after transient transfection of α4Gal-T1. Constructs p#5, #45, and #67, as well as empty pDR2 vector were electroporated in Namalwa cells and expression of P^k/CD77 antigen was tested after 48 hours. Cells were labeled with 1A4 monoclonal antibody and GAM-FITC (grey histograms) or with GAM-FITC alone (empty histograms) and analysed with a FACSCalibur flow cytometer.
The three full coding constructs #67, #45, and p#5, were cloned into pDR2 (Clontech, USA). Insert was excised from pBKs with BamHI/XhoI and inserted into the BamHI/SalI sites of pDR2. Transient transfection of 5×10^6 Namalwa cells with 20 μg cDNA was done by double-pulse electroporation using an Easy-cell ject+ (Eurogentec, France). Expression of CD77/P^k antigen was evaluated by FACS analysis on a FACSCalibur (Beckton-Dickinson, USA) using 1A4 monoclonal antibody (Wiels, 1997).

[4] = P1 assay: α4Gal-T activity with paragloboside (PG) acceptor; format: biochemical; settings: full coding constructs in insect cells, 20 μg PG, UDP-Gal donor
Description: as §2
Full coding constructs were prepared by genomic PCR using primer pair HCRS131 (5′-[…]) (SEQ ID NO:7) and HCRS125 (5′-[…]) (SEQ ID NO:8) and genomic DNA from phenotyped individuals with phenotypes P1+ (#165) and p (#4) (see Table II for sequence). Three different full coding constructs were selected for expression: #67 (A109, T548, G903, G987), #45 (G109, T548, G903, A987), and p#5 (A109, A548, G903, G987). The products were cloned into BamHI and EcoRI sites of pBluescript KS+, and subsequently into the insect cell expression vector pVL1393 (Pharmingen), and sequenced in full. […]

Molecule	acceptor activity over background [1]	galactosyltransferase (α4Gal-T) activity with CDH [2]	other results
OC[C@H]1O[C@@H](O[C@H]2[C@H](O)[C@@H](O)[C@H](OCc3ccccc3)O[C@@H]2CO)[C@H](O)[C@@H](O)[C@H]1O [benzyl β-lacto-side]	no significant activity over background values	–	–
N[C@H]1C(O)O[C@H](CO)[C@@H](O[C@@H]2O[C@H](CO)[C@H](O)[C@H](O)[C@H]2O)[C@@H]1O (stereo partly drawn) [lactosamine]	no significant activity over background values	–	–
OC[C@H]1O[C@@H](O[C@H]2[C@H](O)[C@@H](O)C(O)O[C@@H]2CO)[C@H](O)[C@@H](O)[C@H]1O (stereo partly drawn) [lactose]	no significant activity over background values	–	–
B1	–	marked increase in galactosyltransferase activity	galactosyltransferase (α4Gal-T) activity with CDH ([2]; listed as #45): resulted in α4Gal-T activity toward CDH; P^k/CD77 expression [3]: clearly resulted in P^k/CD77 expression; α4Gal-T activity with neolacto-series (paragloboside) glycolipid acceptor (P1 synthase activity) [4]: neither α4Gal-T1^37M or α4Gal-T1^37V constructs conferred α4Gal-T activity
B2	–	no activity	galactosyltransferase (α4Gal-T) activity with CDH ([2]; listed as #5): no activity above background
